We go through 2 molecules from patent US20240417475A1 (AFFIMED, published 2024).

For assay [1], the target named is T1, cynomolgus CD16 expressed on CHO cells (cAg_36) (cynomolgus, UniProt Q8SPW2 17-254).
T1 construct: whole, on cells; also called cyCD16
Nature of the assay: flow cytometry on cyCD16 CHO cells (cAg_36), one-site fit of MFI, Exp. 2. As for the experimental part: (§1) After washing in FACS buffer, cells were incubated in 50 μL FACS buffer without antibodies or with titrated antibodies starting at a concentration of 1000 nM followed by elven 3-fold serial dilutions for 40-50 min on ice in the dark. […] After washing, binding was measured by flow cytometry and mean fluorescence intensities (MFI) of cell samples were calculated and corrected for background staining using control cells stained with secondary antibodies only.
(§2) Equilibrium dissociation constants (KD) of antibody binding were calculated by plotting MFI values and fitting a non-linear regression model for one-site binding to hyperbolic dose-response curves using GraphPad Prism.
A general note: A flow cytometer gives signals particle by particle.

The target of assay [2] is T2, human FOLR1 expressed on CHO cells (cAg_125) (human, UniProt P15328 25-234).
T2 construct: whole, on cells; also called huFOLR1
The assay can be described thus: flow cytometry on huFOLR1 CHO cells (cAg_125), one-site fit of MFI, mean. As for the experimental part: (§3) To analyze binding of different antibody constructs to CHO cells transfected with human FOLR1 (cAg_125) and cynomolgus FOLR1 (cAg_126), 1-5×10⁵ were resuspended in 100 μL FACS buffer (PBS (BioWest, cat.: L0615-500) containing 2% heat-inactivated FCS (Invitrogen, cat.: 10500-064), and 0.1% sodium azide (Sigma, cat.: S8032_100G)) in round-bottom 96-well microtiter plates. After washing in FACS buffer, cells were incubated in 50 μL FACS buffer without antibodies or with titrated antibodies starting at a concentration of 1000 nM followed by eleven 3-fold serial dilutions for 40-50 min on ice in the dark. […] After washing, binding was measured by flow cytometry and mean fluorescence intensities (MFI) of cell samples were calculated and corrected for background staining using control cells stained with secondary antibodies only.
(§4) Binding of antibody constructs to huFOLR1-as well as cyFOLR1-transfected CHO cells was measured by flow cytometry. Equilibrium dissociation constants (KD) of antibody binding were calculated by plotting MFI values and fitting a non-linear regression model for one-site binding to hyperbolic dose-response curves using GraphPad Prism.

The target in assay [3] is T1, cynomolgus CD16 expressed on CHO cells …. The assay can be described thus: flow cytometry on cyCD16 CHO cells (cAg_36), one-site fit of MFI, Exp. 1. As for the experimental part:
as §1, §2

For assay [4], the target named is T3, cynomolgus FOLR1 expressed on CHO cells (cAg_126) (cynomolgus, UniProt A0A2K5U044 25-234).
T3 construct: whole, on cells; also called cyFOLR1
The assay can be described thus: flow cytometry on cyFOLR1 CHO cells (cAg_126), one-site fit of MFI, mean. As for the experimental part:
as §3, §4

The target in assay [5] is T3, cynomolgus FOLR1 expressed on CHO cells …. Nature of the assay: flow cytometry on cyFOLR1 CHO cells (cAg_126), one-site fit of MFI, Exp. 2. On the procedure:
as §3, §4

Assay [6] concerns the target T1, cynomolgus CD16 expressed on CHO cells …. Nature of the assay: flow cytometry on cyCD16 CHO cells (cAg_36), one-site fit of MFI, Exp. 3. As for the experimental part:
as §1, §2

The target of assay [7] is T3, cynomolgus FOLR1 expressed on CHO cells …. The assay can be described thus: flow cytometry on cyFOLR1 CHO cells (cAg_126), one-site fit of MFI, Exp. 1. On the procedure: as §3, §4
Assay [8] deals with T4, human CD16A (158V) expressed on CHO cells (cAg_35) (human, UniProt P08637 17-254).
T4 construct: also called huCD16A (158V)
The assay can be described thus: flow cytometry on huCD16A (158V)-transfected CHO cells (printed sAg_35), on ice, FITC goat anti-human IgG detection. On the procedure:
as §1

In assay [9] the target is T5, human CD16A (158F) expressed on CHO cells (cAg_34) (human, UniProt P08637 17-254).
T5 construct: also called huCD16A-transfected CHO cells
The assay can be described thus: flow cytometry on huCD16A (158F) CHO cells (cAg_34), one-site fit of MFI, Exp. 2. On the procedure: as §1, §2

In assay [10] the target is T5, human CD16A (158F) expressed on CHO …. Nature of the assay: flow cytometry on huCD16A (158F)-transfected CHO cells (cAg_34), on ice, FITC goat anti-human IgG detection. On the procedure: as §1
For assay [11], the target named is T3, cynomolgus FOLR1 expressed on CHO cells …. Nature of the assay: flow cytometry on cyFOLR1-transfected CHO cells (cAg_126), on ice, FITC goat anti-human IgG detection. As for the experimental part: as §3
Assay [12] concerns the target T5, human CD16A (158F) expressed on CHO …. Nature of the assay: flow cytometry on huCD16A (158F) CHO cells (cAg_34), one-site fit of MFI, mean. On the procedure:
as §1, §2

The target of assay [13] is T2, human FOLR1 expressed on CHO cells …. Nature of the assay: flow cytometry on huFOLR1 CHO cells (cAg_125), one-site fit of MFI, Exp. 1. As for the experimental part:
as §3, §4

For assay [14], the target named is T3, cynomolgus FOLR1 expressed on CHO cells …. The assay can be described thus: flow cytometry on cyFOLR1 CHO cells (cAg_126), one-site fit of MFI, Exp. 3. On the procedure:
as §3, §4

For assay [15], the target named is T5, human CD16A (158F) expressed on CHO …. The assay can be described thus: flow cytometry on huCD16A (158F) CHO cells (cAg_34), one-site fit of MFI, Exp. 1. As for the experimental part:
as §1, §2

The target of assay [16] is T4, human CD16A (158V) expressed on CHO …. The assay can be described thus: flow cytometry on huCD16A (158V) CHO cells (cAg_35), one-site fit of MFI, Exp. 3. On the procedure: as §1, §2
Assay [17] has as its target T5, human CD16A (158F) expressed on CHO …. The assay can be described thus: flow cytometry on huCD16A (158F) CHO cells (cAg_34), one-site fit of MFI, Exp. 3. As for the experimental part: as §1, §2

T4 sequence (P08637 17-254 F176V limits assumed): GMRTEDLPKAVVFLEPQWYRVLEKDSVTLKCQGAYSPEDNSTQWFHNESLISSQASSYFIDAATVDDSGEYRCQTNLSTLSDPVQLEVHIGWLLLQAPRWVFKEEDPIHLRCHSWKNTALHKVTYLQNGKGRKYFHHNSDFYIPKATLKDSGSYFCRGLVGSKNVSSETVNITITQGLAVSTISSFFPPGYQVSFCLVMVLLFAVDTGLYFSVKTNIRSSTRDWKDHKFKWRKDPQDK
T1 sequence (Q8SPW2 17-254): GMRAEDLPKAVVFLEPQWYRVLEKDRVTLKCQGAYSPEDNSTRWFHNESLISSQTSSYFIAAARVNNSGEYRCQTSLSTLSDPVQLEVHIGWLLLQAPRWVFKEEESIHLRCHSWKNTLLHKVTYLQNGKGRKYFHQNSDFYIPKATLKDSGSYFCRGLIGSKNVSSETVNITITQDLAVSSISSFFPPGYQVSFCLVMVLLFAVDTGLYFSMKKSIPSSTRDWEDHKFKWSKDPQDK
T2 sequence (P15328 25-234): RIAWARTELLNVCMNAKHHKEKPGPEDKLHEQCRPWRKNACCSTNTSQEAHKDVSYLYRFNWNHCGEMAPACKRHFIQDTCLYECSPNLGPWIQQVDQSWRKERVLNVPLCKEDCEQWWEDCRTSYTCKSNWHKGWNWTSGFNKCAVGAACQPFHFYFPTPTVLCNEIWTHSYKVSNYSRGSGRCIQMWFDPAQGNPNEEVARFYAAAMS
T3 sequence (A0A2K5U044 entry or part of it): as the sequence (P15328 25-234) above, with I2T, W4R, R37K, A146P, H171Y counted along it
T5 sequence (P08637 17-254 limits assumed): as the sequence (P08637 17-254 F176V limits assumed) above, with V160F counted along it

B1: scFv-IgAb_387 (FOLR1_1×CD16a3) (bispecific antibody)
heavy: EVQLVESGGGVVQPGRSLRLSCSASGFTFSGYGLSWVRQAPGKGLEWVAMISSGGSYTYYADSVKGRFAISRDNAKNTLFLQMDSLRPEDTGVYFCARHGDDPAWFAYWGQGTPVTVSSASTKGPSVFPLAPSSKSTSGGTAALGCLVKDYFPEPVTVSWNSGALTSGVHTFPAVLQSSGLYSLSSVVTVPSSSLGTQTYICNVNHKPSNTKVDKKVEPKSCDKTHTCPPCPAPEFEGGPSVFLFPPKPKDTLMISRTPEVTCVVVAVSHEDPEVKFNWYVDGVEVHNAKTKPREEQYNSTYRVVSVLTVLHQDWLNGKEYKCKVSNKALPAPIEKTISKAKGQPREPQVYTLPPSREEMTKNQVSLTCLVKGFYPSDIAVEWESNGQPENNYKTTPPVLDSDGSFFLYSKLTVDKSRWQQGNVFSCSVMHEALHNHYTQKSLSLSPGGGGGSGGGGSGGGGSGGGGSGGGGSGGGGSSYELTQPLSVSVALGQTARITCGGNNIGSKSVHWYQQKPGQAPVLVIYQDKKRPSGIPERFSGSNSGNTATLTISRAQAGDEADYYCQVWDDYIVLFGCGTKLTVLGGSGGSGGSGGSGGSGGSGGSQVQLVQSGAEVKKPGASVKVSCKASGYTFTNYYMQWVRQAPGQCLEWMGIINPSGGVTSYAQKFQGRVTMTRDTSTSTVYMELSSLRSEDTAVYYCARGSAYYYDFADYWGQGTLVTVSSG
light: DIQLTQSPSSLSASVGDRVTITCSVSSSISSNNLHWYQQKPGKAPKPWIYGTSNLASGVPSRFSGSGSGTDYTFTISSLQPEDIATYYCQQWSSYPYMYTFGQGTKVEIKRTVAAPSVFIFPPSDEQLKSGTASVVCLLNNFYPREAKVQWKVDNALQSGNSQESVTEQDSKDSTYSLSSTLTLSKADYEKHKVYACEVTHQGLSSPVTKSFNRGEC
modifications: Chemically biotinylated (NHS-PEG4-biotin) in Example 22 only.
notes: Tetravalent bispecific scFv-IgAb; also called FOLR1×CD16A scFv-IgAb_387; FOLR1/CD16A scFv-IgAb_387; copies: 2 + 2
In the case of B1, the Kd worked out at 26.2 nM in [1]; 35.8 nM in [2]; 26.6 nM in assay [3]; 16.3 nM in assay [4]; 15.3 nM in assay [5]; 22.8 nM in [6]. Moreover, the Kd in [7] stood at 14.9 nM; in [9] it was 28.5 nM; in [12], 21.5 nM; in [13], 35.1 nM; in [14] it was 18.8 nM; in assay [15] it was 16 nM. Besides, the Kd in [16] is 47.5 nM; in assay [17], 19.9 nM. In addition, the “EC50 (read off the curve)” value is around 50 nM in assay [8], around 20 nM in [10] and around 20 nM in [11].

B2: scFv-IgAb_381 (FOLR1_1×CD16a4) (bispecific antibody)
chain 1: EVQLVESGGGVVQPGRSLRLSCSASGFTFSGYGLSWVRQAPGKGLEWVAMISSGGSYTYYADSVKGRFAISRDNAKNTLFLQMDSLRPEDTGVYFCARHGDDPAWFAYWGQGTPVTVSSASTKGPSVFPLAPSSKSTSGGTAALGCLVKDYFPEPVTVSWNSGALTSGVHTFPAVLQSSGLYSLSSVVTVPSSSLGTQTYICNVNHKPSNTKVDKKVEPKSCDKTHTCPPCPAPEFEGGPSVFLFPPKPKDTLMISRTPEVTCVVVAVSHEDPEVKFNWYVDGVEVHNAKTKPREEQYNSTYRVVSVLTVLHQDWLNGKEYKCKVSNKALPAPIEKTISKAKGQPREPQVYTLPPSREEMTKNQVSLTCLVKGFYPSDIAVEWESNGQPENNYKTTPPVLDSDGSFFLYSKLTVDKSRWQQGNVFSCSVMHEALHNHYTQKSLSLSPGGGGGSGGGGSGGGGSGGGGSGGGGSGGGGSSYELTQPLSVSVALGQTARITCGGHNIGSKNVHWYQQKPGQAPVLVIYQDNKRPSGIPERFSGSNSGNTATLTISRAQAGDEADYYCQVWDNYNVLFGCGTKLTVLGGSGGSGGSGGSGGSGGSGGSQVQLVQSGAEVKKPGASVKVSCKASGYTFTSYYMHWVRQAPGQCLEWMGAIEPTYGSTSYAQKFQGRVTMTRDTSTSTVYMELSSLRSEDTAVYYCARGSAYYYDFADYWGQGTLVTVS
chain 2: B1 light
notes: also called FOLR1×CD16A scFv-IgAb_381
With B2, the Kd was 31.7 nM in assay [1]; 24.7 nM in [2]; 38.6 nM in [3]; 12.4 nM in assay [4]; 11.8 nM in [5]; 28.2 nM in [6]. Moreover, the Kd in [7] amounted to 11.5 nM; in assay [9], 29.3 nM; in [12], 26.2 nM; in assay [13], 20.3 nM; in assay [14] it was 14 nM; in [15], 22.1 nM. Moreover, the results for the Kd in [16] and in [17] were 63.7 nM and 27.1 nM, respectively. For the same molecule, the results for the “EC50 (read off the curve)” value in assay [8], in [10] and in [11] were around 60 nM, around 30 nM and around 10 nM, respectively.

The Kd is a measure of binding affinity in units of concentration. The low end stands for higher affinity, the high end for lower affinity. Broadly, the EC50 (read off the curve) is the concentration that produces a half-maximal response.
